Data on 39 variants can be found in the RNAGym collection of RNA variant scans (doi:10.7554/elife.90254).

B1: LINE1-full (parent)
chain: UACGUAGGUGGUUUUCCCCUGAUAGUGCUAAGGGGGCCUGGAAGUUUGGACUGGGCAGAGCUCAACACAGCGUGGCAAAGUGGCUGUGGCUAGACUGCCUCUCUGGAUUCCUCGUCACUCAGCAGGGCAUCUCUGAGAGAAAUGCC

Variants of B1 are the subject of this data set. Kind of data set: self-cleavage, relative activity (ratio to wild type); higher = more cleavage; in vitro, sequencing; the parent is a self-cleaving ribozyme.
As for UACGUAGGUGGUUUUCCCCUGAUAGUGCUGAGGGGGCCUGGAAGUUUGGACUGGGCAGAGCUCAACACAGCGUGGCAAAGUGGCUGUGGCUAGACUGCCUCUCUGGAUUCCUCGUCACUCAGCAGGGCGUCUCUGAGAGAAAUGCC, the self-cleavage was 0.72.
Then UACGUAGGUGGUUUUCCCCUGAUAGUGCUGAGGGGGCCUGGAAGUUUGGACUGGGCAGAGCUCAACACAGCGUGGCAAAGUGGCUGUGGCUAGACUGCCUCUCUGGAUUCCUCGUCACUCAGCAGGGCCUCUCUGAGAGAAAUGCC, with 0.
As for UACGUAGGUGGUUUUCCCCUGAUAGUGCUGAGGGGGCCUGGAAGUUUGGACUGGGCAGAGCUAAACACAGCGUGGCAAAGUGGCUGUGGCUAGACUGCCUCUCUGGAUUCCUCGUCACUCAGCAGGGCAUCUCUGAGAGAAAUGCC, the self-cleavage was found to be 0.3.
Turning to UACGUAGGUGGUUUUCCCCUGAUAGUGCUGAGGGGGCCUGGAAGUUUGGACUGGGCAGAGCUUAACACAGCGUGGCAAAGUGGCUGUGGCUAGACUGCCUCUCUGGAUUCCUCGUCACUCAGCAGGGCAUCUCUGAGAGAAAUGCC, the self-cleavage came out at 0.51.
UACGUAGGUGGUUUUCCCCUGAUAGUGCUGAGGGGGCCUGGAUGUUUGGACUGGGCAGAGCUCAACACAGCGUGGCAAAGUGGCUGUGGCUAGACUGCCUCUCUGGAUUCCUCGUCACUCAGCAGGGCAUCUCUGAGAGAAAUGCC: the self-cleavage worked out at 1.5.
For the variant UACGUAGGUGGUUUUCCCCUGAUAGUGCUGAGGGGGCCUGGAAGUUUGGACUGGGCAGGGCUCAACACAGCGUGGCAAAGUGGCUGUGGCUAGACUGCCUCUCUGGAUUCCUCGUCACUCAGCAGGGCAUCUCUGAGAGAAAUGCC, the self-cleavage stood at 0.11.
Then UACGUAGGUGGUUUUCCCCUGAUAGUGCUGAGGGGGCCUGGAAGUUUGGACUGGGCAGAGCUCAACACAGCGUGGCAAAGUGGCUGUGGCUGGACUGCCUCUCUGGAUUCCUCGUCACUCAGCAGGGCAUCUCUGAGAGAAAUGCC, with 0; and UACGUAGGUGGUUUUCCCCUGAUAGUGCUGAGGGGGCCUGGAAGUUUGGACUGGGCAGAGCUCAGCACAGCGUGGCAAAGUGGCUGUGGCUAGACUGCCUCUCUGGAUUCCUCGUCACUCAGCAGGGCAUCUCUGAGAGAAAUGCC, with 0.07.
In the case of UACGUAGGUGGUUUUCCCCUGAUAGUGCUCAGGGGGCCUGGAAGUUUGGACUGGGCAGAGCUCAACACAGCGUGGCAAAGUGGCUGUGGCUAGACUGCCUCUCUGGAUUCCCCGUCACUCAGCAGGGCAUCUCUGAGAGAAAUGCC, the self-cleavage was determined as 1.33.
In the case of UACGUAGGUGGUUUUCCCCUGAUAGUGCUGAGGGGGCCUGGAAGUUUGGACUGGGCAGAGCUCAACACAGCGUGGCAAAGUGGCUGUGGCUAGACUGCCUCUCUGGAUUCCUCGUCACUCAGCAGGGCAUCUCUGAGAGAGAUGCC, the self-cleavage worked out at 1.26.
Consider UACGUAGGUGGUUUUCCCCUGAUAGUGCUGAGGGGGCCUGGAAGUUUGGACUGGGCAGAGCUCCACACAGCGUGGCAAAGUGGCUGUGGCUAGACUGCCUCUCUGGAUUCCUCGUCACUCAGCAGGGCAUCUCUGAGAGAAAUGCC, for which the self-cleavage came out at 0.31.
For UACGUAGGUGGUUUUCCCCUGAUAGUGCUGAGGGGGCCUGGAAGUUUGGACUGGGCAGAGCUCUACACAGCGUGGCAAAGUGGCUGUGGCUAGACUGCCUCUCUGGAUUCCUCGUCACUCAGCAGGGCAUCUCUGAGAGAAAUGCC, the self-cleavage came out at 0.65.
Then UACGUAGGUGGUUUUCCCCUGAUAGUGCUGAGGGGGCCUGGAAGUUUGGACUGGGCAGAGCUCAACACAGCGUGGCAAAGUGGCUGUGGCUAGACUGCCUCUCUGGAUUCCUCGUCACUCAGCGGGGCAUCUCUGAGAGAAAUGCC, with 0.91.
The same measure for UACGUAGGUGGUUUUCCCCUGAUAGUGCUCAGGGGGCCUGUAAGUUUGGACUGGGCAGAGCUCAACACAGCGUGGCAAAGUGGCUGUGGCUAGACUGCCUCUCUGGAUUCCUCGUCACUCAGCAGGGCAUCUCUGAGAGAAAUGCC: 1.52; for UACGUAGGUGGUUUUCCCCUGAUAGUGCUGAGGGGGCCUGGAAGUUUGGACUGGGCAGAGCUCAACACUGCGUGGCAAAGUGGCUGUGGCUAGACUGCCUCUCUGGAUUCCUCGUCACUCAGCAGGGCAUCUCUGAGAGAAAUGCC: 0.19.
As for UACGUAGGUGGUUUUCCCCUGAUAGUGCUGAGGGGGCCUGGAAGUUUGGUCUGGGCAGAGCUCAACACAGCGUGGCAAAGUGGCUGUGGCUAGACUGCCUCUCUGGAUUCCUCGUCACUCAGCAGGGCAUCUCUGAGAGAAAUGCC, the self-cleavage was 0.89.
Then UACGUAGGUGGUUUUCCCCUGAUAGUGCUGAGGGGGCCUGGAAGUUUGGGCUGGGCAGAGCUCAACACAGCGUGGCAAAGUGGCUGUGGCUAGACUGCCUCUCUGGAUUCCUCGUCACUCAGCAGGGCAUCUCUGAGAGAAAUGCC, with 0.64; and UACGUAGGUGGUUUUCCCCUGAUAGUGCUGAGGGGGCCUGGAAGUUUGGACUGGGCAGAGCUCAACACAGCGUGGCUAAGUGGCUGUGGCUAGACUGCCUCUCUGGAUUCCUCGUCACUCAGCAGGGCAUCUCUGAGAGAAAUGCC, with 0.71; and UACGUAGGUGGUUUUCCCCUGAUAGUGCUGAGGGGGCCUGGAAGUUUGGACUGGGCAGAGCUCAACACAGCGUGGCAAAGUGGCUGUGGCUAGACUGCCUCUCUGGAUUCCUCGUCACUUAGCAGGGCAUCUCUGAGAGAAAUGCC, with 1.53.
Then UACGUAGGUGGUUUUCCCCUGAUAGUGCUGAGGGGGCCUGGAAGUUUGGACUGGGCAGAGCUCAACACAGCGUGGCAAAGUGGCUGUGGCUAGACUGCCUCUCUGGAUUUCUCGUCACUCAGCAGGGCAUCUCUGAGAGAAAUGCC, with 1.25; and UACGUAGGUGGUUUUCCCCUGAUAGUGCUGAGGGGGCCUGGAAGUUUGGACUGGGCGGAGCUCAACACAGCGUGGCAAAGUGGCUGUGGCUAGACUGCCUCUCUGGAUUCCUCGUCACUCAGCAGGGCAUCUCUGAGAGAAAUGCC, with 1.39; and UACGUAGGUGGUUUUCCCCUGAUAGUGCUGAGGGGGCCUGGCAGUUUGGACUGGGCAGAGCUCAACACAGCGUGGCAAAGUGGCUGUGGCUAGACUGCCUCUCUGGAUUCCUCGUCACUCAGCAGGGCAUCUCUGAGAGAAAUGCC, with 0.59.
UACGUAGGUGGUUUUCCCCUGAUAGUGCUGAGGGGGCCUGGGAGUUUGGACUGGGCAGAGCUCAACACAGCGUGGCAAAGUGGCUGUGGCUAGACUGCCUCUCUGGAUUCCUCGUCACUCAGCAGGGCAUCUCUGAGAGAAAUGCC: the self-cleavage turned out to be 0.9.
UACGUAGGUGGUUUUCCCCUGAUAGUGCUGAGGGGGCCUGGAAGUUUGGACUGGGCAGAGCUCAACACAGCGUGGCAAUGUGGCUGUGGCUAGACUGCCUCUCUGGAUUCCUCGUCACUCAGCAGGGCAUCUCUGAGAGAAAUGCC: the self-cleavage was 0.5.
Then UACGUAGGUGGUUUUCCCCUGAUAGUGCUGAGGGGGCCUGGAAGUUUGGACUGGGCAGAGCUCAACACAGCGUGGCAAGGUGGCUGUGGCUAGACUGCCUCUCUGGAUUCCUCGUCACUCAGCAGGGCAUCUCUGAGAGAAAUGCC, with 1.19; and UACGUAGGUGGUUUUCCCCUGAUAGUGCUGAGGGGGCCUGGAAGUUUGGACUGGGCAGAGCUCAACACAGCGUGGCAAAGUGGCUGUGGCUAGACUGCCUCUCUGGAUUCCUCGUCACUCAGCAGGGCAUCUCUGAGGGAAAUGCC, with 0.64; and UACGUAGGUGGUUUUCCCCUGAUAGUGCUCAGGGGGCCUGGAAGUUUGGACUGGGCAGAGCUCAACACAGCGUGGCAAAGUGGCUGCGGCUAGACUGCCUCUCUGGAUUCCUCGUCACUCAGCAGGGCAUCUCUGAGAGAAAUGCC, with 0.64.
The same measure for UACGUAGGUGGUUUUCCCCUGAUAGUGCUGAGGGGGCCUGGAAGUUUGGACUGGGCAGAGCUCAACACAGCGUGGCAAAGUGGCUGUGGCUAGACUGCCUCUCUGGAUUCCUCGUCGCUCAGCAGGGCAUCUCUGAGAGAAAUGCC: 0.91; for UACGUAGGUGGUUUUCCCCUGAUAGUGCUGAGGGGGCUUGGAAGUUUGGACUGGGCAGAGCUCAACACAGCGUGGCAAAGUGGCUGUGGCUAGACUGCCUCUCUGGAUUCCUCGUCACUCAGCAGGGCAUCUCUGAGAGAAAUGCC: 1.2; for UACGUAGGUGGUUUUCCCCUGAUAGUGCUGAGGGGGCCUGGAAGUUUGGACUGGGCAGAGCUCAACACAGCGUGGCAAAGUGGCUGUGGCUAGACUGCCUCUCUGGAUUCCUCGUCACUCAGCAGGGCAUCUCUGGGAGAAAUGCC: 1.23.
UACGUAGGUGGUUUUCCCCUGAUAGUGCUCAGGGGGCCUGGAAGUUUGGACUGGGCAGAGCUCAACACAGCGUGGCAAAGUGGCUGUGGCUAGACCGCCUCUCUGGAUUCCUCGUCACUCAGCAGGGCAUCUCUGAGAGAAAUGCC: the self-cleavage turned out to be 0.39.
For UACGUAGGUGGUUUUCCCCUGAUAGUGCUGAGGGGGCCUGGAAGUUUGGACUGGGCAGAGCUCAACACAGCGUGGCAAAGUGGCUGUGGCUAGACUGCCUCUCUGGAUUCCUCGUCACUCAGCAGGGCAUCUCUGAGAGGAAUGCC, the self-cleavage was determined as 0.99.
For UACGUAGGUGGUUUUCCCCUGAUAGUGCUGAGGGGGCCUGGAAGUUUGGACUGGGCAGAGCUCAACACAGCGUGGCAAAGUGGCUGUGGCUAGACUGCCUCUAUGGAUUCCUCGUCACUCAGCAGGGCAUCUCUGAGAGAAAUGCC, the self-cleavage was found to be 0.85.
The same measure for UACGUAGGUGGUUUUCCCCUGAUAGUGCUGAGGGGGCCUGGAAGUUUGGACUGGGCAGAGCUCAACACAGCGUGGCAAAGUGGCUGUGGCUAGACUGCCUCUCUGGGUUCCUCGUCACUCAGCAGGGCAUCUCUGAGAGAAAUGCC: 1.2.
Turning to UACGUAGGUGGUUUUCCCCUGAUAGUGCUGAGGGGGCCUGGAAGUUUGGACUGGGCAGAGCUCAACACAGCGUGGCAAAGUGGCUGUGGCUAGACUGCCUCUCUGGUUUCCUCGUCACUCAGCAGGGCAUCUCUGAGAGAAAUGCC, the self-cleavage worked out at 1.71.
Then UACGUAGGUGGUUUUCCCCUGAUAGUGCUGAGGGGGCCUGGAAGUUUGGACUGGGCAGAGCUCAACACAGCGUGGCAAAGUGGCUGUGGCUAGACUGCCUCUCUGGAUUCCUCGUCACUCAGCAGGGCAUCUCUGAGAGAAAUGGC, with 0.47; and UACGUAGGUGGUUUUCCCCUGAUAGUGCUCAGGGGGCCUGGAAGUCUGGACUGGGCAGAGCUCAACACAGCGUGGCAAAGUGGCUGUGGCUAGACUGCCUCUCUGGAUUCCUCGUCACUCAGCAGGGCAUCUCUGAGAGAAAUGCC, with 1.48; and UACGUAGGUGGUUUUCCCCUGAUAGUGCUGAGGGGGCCUGGAAGUUUGGACUGGGCAGAGCUCAACACAGCGUGGCAAAGUGGCUGUGGCUAGACUGCCUCUCUGGAUUCCUCGUCACUCAGAAGGGCAUCUCUGAGAGAAAUGCC, with 1.
Turning to UACGUAGGUGGUUUUCCCCUGAUAGUGCUGAGGGGGCCUGGAAGUUUGGACUGGGCAGAGCUCAACACAGCGUGGCAAAGUGGCUGUGGCUAGACUGCAUCUCUGGAUUCCUCGUCACUCAGCAGGGCAUCUCUGAGAGAAAUGCC, the self-cleavage turned out to be 0.61.
